According to IntAct's records for PubMed 19624469:

B1: Protein phosphatase 2C 16 (Arabidopsis thaliana (Mouse-ear cress)), Q9CAJ0 (parent)
chain: MEEMTPAVAMTLSLAANTMCESSPVEITQLKNVTDAADLLSDSENQSFCNGGTECTMEDVSELEEVGEQDLLKTLSDTRSGSSNVFDEDDVLSVVEDNSAVISEGLLVVDAGSELSLSNTAMEIDNGRVLATAIIVGESSIEQVPTAEVLIAGVNQDTNTSEVVIRLPDENSNHLVKGRSVYELDCIPLWGTVSIQGNRSEMEDAFAVSPHFLKLPIKMLMGDHEGMSPSLTHLTGHFFGVYDGHGGHKVADYCRDRLHFALAEEIERIKDELCKRNTGEGRQVQWDKVFTSCFLTVDGEIEGKIGRAVVGSSDKVLEAVASETVGSTAVVALVCSSHIVVSNCGDSRAVLFRGKEAMPLSVDHKPDREDEYARIENAGGKVIQWQGARVFGVLAMSRSIGDRYLKPYVIPEPEVTFMPRSREDECLILASDGLWDVMNNQEVCEIARRRILMWHKKNGAPPLAERGKGIDPACQAAADYLSMLALQKGSKDNISIIVIDLKAQRKFKTRT
partner: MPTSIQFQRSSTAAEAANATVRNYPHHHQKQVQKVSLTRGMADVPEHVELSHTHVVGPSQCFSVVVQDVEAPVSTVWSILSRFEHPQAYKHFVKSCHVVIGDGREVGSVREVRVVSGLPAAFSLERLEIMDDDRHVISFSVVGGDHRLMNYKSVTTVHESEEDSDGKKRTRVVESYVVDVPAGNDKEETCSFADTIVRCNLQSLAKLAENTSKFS
B2: Protein phosphatase 2C 16 (Arabidopsis thaliana (Mouse-ear cress)), Q9CAJ0 (parent)
chain: B1 chain
partner: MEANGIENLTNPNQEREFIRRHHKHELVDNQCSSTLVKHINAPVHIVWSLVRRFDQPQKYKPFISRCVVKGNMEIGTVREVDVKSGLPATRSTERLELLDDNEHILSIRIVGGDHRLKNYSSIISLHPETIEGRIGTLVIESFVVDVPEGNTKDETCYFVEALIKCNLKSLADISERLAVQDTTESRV
B3: Protein phosphatase 2C 16 (Arabidopsis thaliana (Mouse-ear cress)), Q9CAJ0 (parent)
chain: B1 chain
partner: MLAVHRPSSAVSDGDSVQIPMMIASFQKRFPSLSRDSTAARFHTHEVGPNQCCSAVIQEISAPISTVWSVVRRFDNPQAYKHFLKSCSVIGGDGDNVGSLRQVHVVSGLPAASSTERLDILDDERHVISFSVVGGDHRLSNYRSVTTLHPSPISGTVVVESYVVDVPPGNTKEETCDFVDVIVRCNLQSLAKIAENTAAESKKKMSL
B4: Protein phosphatase 2C 16 (Arabidopsis thaliana (Mouse-ear cress)), Q9CAJ0 (parent)
chain: B1 chain
B5: Protein phosphatase 2C 16 (Arabidopsis thaliana (Mouse-ear cress)), Q9CAJ0 (parent)
chain: B1 chain
partner: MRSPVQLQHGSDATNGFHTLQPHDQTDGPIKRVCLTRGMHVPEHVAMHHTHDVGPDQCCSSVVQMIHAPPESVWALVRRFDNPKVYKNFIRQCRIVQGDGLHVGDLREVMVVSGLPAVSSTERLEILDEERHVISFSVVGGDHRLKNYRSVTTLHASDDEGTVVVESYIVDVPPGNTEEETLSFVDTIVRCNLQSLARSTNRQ

Variants of: B1
Conditions: with pyl6_arath PYL6, Q8S8E3

effect of a mutation on the interaction	Variant
disrupting interaction	MEEMTPAVAMTLSLAANTMCESSPVEITQLKNVTDAADLLSDSENQSFCNGGTECTMEDVSELEEVGEQDLLKTLSDTRSGSSNVFDEDDVLSVVEDNSAVISEGLLVVDAGSELSLSNTAMEIDNGRVLATAIIVGESSIEQVPTAEVLIAGVNQDTNTSEVVIRLPDENSNHLVKGRSVYELDCIPLWGTVSIQGNRSEMEDAFAVSPHFLKLPIKMLMGDHEGMSPSLTHLTGHFFGVYDGHDGHKVADYCRDRLHFALAEEIERIKDELCKRNTGEGRQVQWDKVFTSCFLTVDGEIEGKIGRAVVGSSDKVLEAVASETVGSTAVVALVCSSHIVVSNCGDSRAVLFRGKEAMPLSVDHKPDREDEYARIENAGGKVIQWQGARVFGVLAMSRSIGDRYLKPYVIPEPEVTFMPRSREDECLILASDGLWDVMNNQEVCEIARRRILMWHKKNGAPPLAERGKGIDPACQAAADYLSMLALQKGSKDNISIIVIDLKAQRKFKTRT [G246D]

Variants of: B2
Conditions: with pyl8_arath PYL8, Q9FGM1

effect of a mutation on the interaction	Variant
disrupting interaction	MEEMTPAVAMTLSLAANTMCESSPVEITQLKNVTDAADLLSDSENQSFCNGGTECTMEDVSELEEVGEQDLLKTLSDTRSGSSNVFDEDDVLSVVEDNSAVISEGLLVVDAGSELSLSNTAMEIDNGRVLATAIIVGESSIEQVPTAEVLIAGVNQDTNTSEVVIRLPDENSNHLVKGRSVYELDCIPLWGTVSIQGNRSEMEDAFAVSPHFLKLPIKMLMGDHEGMSPSLTHLTGHFFGVYDGHDGHKVADYCRDRLHFALAEEIERIKDELCKRNTGEGRQVQWDKVFTSCFLTVDGEIEGKIGRAVVGSSDKVLEAVASETVGSTAVVALVCSSHIVVSNCGDSRAVLFRGKEAMPLSVDHKPDREDEYARIENAGGKVIQWQGARVFGVLAMSRSIGDRYLKPYVIPEPEVTFMPRSREDECLILASDGLWDVMNNQEVCEIARRRILMWHKKNGAPPLAERGKGIDPACQAAADYLSMLALQKGSKDNISIIVIDLKAQRKFKTRT [G246D]

Variants of: B3
Conditions: with pyl4_arath PYL4, O80920

effect of a mutation on the interaction	Variant
disrupting interaction	MEEMTPAVAMTLSLAANTMCESSPVEITQLKNVTDAADLLSDSENQSFCNGGTECTMEDVSELEEVGEQDLLKTLSDTRSGSSNVFDEDDVLSVVEDNSAVISEGLLVVDAGSELSLSNTAMEIDNGRVLATAIIVGESSIEQVPTAEVLIAGVNQDTNTSEVVIRLPDENSNHLVKGRSVYELDCIPLWGTVSIQGNRSEMEDAFAVSPHFLKLPIKMLMGDHEGMSPSLTHLTGHFFGVYDGHDGHKVADYCRDRLHFALAEEIERIKDELCKRNTGEGRQVQWDKVFTSCFLTVDGEIEGKIGRAVVGSSDKVLEAVASETVGSTAVVALVCSSHIVVSNCGDSRAVLFRGKEAMPLSVDHKPDREDEYARIENAGGKVIQWQGARVFGVLAMSRSIGDRYLKPYVIPEPEVTFMPRSREDECLILASDGLWDVMNNQEVCEIARRRILMWHKKNGAPPLAERGKGIDPACQAAADYLSMLALQKGSKDNISIIVIDLKAQRKFKTRT [G246D]

Variants of: B4
Conditions: with pyr1_arath PYR1, O49686

effect of a mutation on the interaction	Variant
disrupting interaction	MEEMTPAVAMTLSLAANTMCESSPVEITQLKNVTDAADLLSDSENQSFCNGGTECTMEDVSELEEVGEQDLLKTLSDTRSGSSNVFDEDDVLSVVEDNSAVISEGLLVVDAGSELSLSNTAMEIDNGRVLATAIIVGESSIEQVPTAEVLIAGVNQDTNTSEVVIRLPDENSNHLVKGRSVYELDCIPLWGTVSIQGNRSEMEDAFAVSPHFLKLPIKMLMGDHEGMSPSLTHLTGHFFGVYDGHDGHKVADYCRDRLHFALAEEIERIKDELCKRNTGEGRQVQWDKVFTSCFLTVDGEIEGKIGRAVVGSSDKVLEAVASETVGSTAVVALVCSSHIVVSNCGDSRAVLFRGKEAMPLSVDHKPDREDEYARIENAGGKVIQWQGARVFGVLAMSRSIGDRYLKPYVIPEPEVTFMPRSREDECLILASDGLWDVMNNQEVCEIARRRILMWHKKNGAPPLAERGKGIDPACQAAADYLSMLALQKGSKDNISIIVIDLKAQRKFKTRT [G246D]

Variants of: B5
Conditions: with pyl5_arath PYL5, Q9FLB1

effect of a mutation on the interaction	Variant
disrupting interaction	MEEMTPAVAMTLSLAANTMCESSPVEITQLKNVTDAADLLSDSENQSFCNGGTECTMEDVSELEEVGEQDLLKTLSDTRSGSSNVFDEDDVLSVVEDNSAVISEGLLVVDAGSELSLSNTAMEIDNGRVLATAIIVGESSIEQVPTAEVLIAGVNQDTNTSEVVIRLPDENSNHLVKGRSVYELDCIPLWGTVSIQGNRSEMEDAFAVSPHFLKLPIKMLMGDHEGMSPSLTHLTGHFFGVYDGHDGHKVADYCRDRLHFALAEEIERIKDELCKRNTGEGRQVQWDKVFTSCFLTVDGEIEGKIGRAVVGSSDKVLEAVASETVGSTAVVALVCSSHIVVSNCGDSRAVLFRGKEAMPLSVDHKPDREDEYARIENAGGKVIQWQGARVFGVLAMSRSIGDRYLKPYVIPEPEVTFMPRSREDECLILASDGLWDVMNNQEVCEIARRRILMWHKKNGAPPLAERGKGIDPACQAAADYLSMLALQKGSKDNISIIVIDLKAQRKFKTRT [G246D]
